Source: the supplement of paper PMC9170038

What was measured:
MS2 coat protein [1] = experiment: apparent KD of MS2 coat protein, switch OFF state (with FMN for OFF switches, without FMN for ON switches); designed switch direction (-1 OFF switch, 1 ON switch): 1; higher = weaker reporter binding; settings: FMN input: 0 or 200 uM; Eterna round: R93 (includes R88 designs)
Outline: (§1)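 Designed RNA switches were transcribed on-chip from Illumina sequencing clusters and titrated with SNAP-549-labelled MS2 coat protein in twofold steps from 0.7 or 1.5 nM up to 3 µM. Each step lasted 0.8–1.5 h at first and 10–20 min by the end, in 100 mM Tris-HCl pH 7.5, 80 mM KCl and 4 mM MgCl2, without or with constant ligand. Apparent KD is the median, for each design, of fits to normalised cluster binding curves.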

MS2 coat protein [2] = experiment: apparent KD of MS2 coat protein, switch ON state; designed switch direction (-1 OFF switch, 1 ON switch): 1; higher = weaker reporter binding; settings: FMN input: 0 or 200 uM; Eterna round: R93 (includes R88 designs)
Outline: as §1

Row | Sequence | apparent KD of MS2 coat protein (MS2 coat protein [1]) [nM] | apparent KD of MS2 coat protein (MS2 coat protein [2]) [nM]
1 | AAGAAACAUGAGGAUCACCCAUGUAAACUCGAGAGAGGAUAUCGUACAUGGAAGAUUCAACGAGAAGGCUCUAGAG [Same State 1.1a (Pariah 3, G boost at 31, GC 76/28)] | 41.5 | 23.8
2 | AAUAUACAUGAGGAUCACCCAUGUUUUAAUAGUUGAGGAUAUACGGGUGAAAAUAGCAUAGUAGAAGGCGAGUGUA [SameState1 Malc#12] | 106 | 146
3 | AAAAAACAUGAGGAUCACCCAUGUCUUCGGACAUGAGGAUAUGUACAGACUUCGGUCUGUACAGAAGGCAUGUAAA [SS1 - 1017] | 61.2 | 323
4 | CAAACAACAACACAGGAUAUACAUAUAAUAACAUGAGGAUCACCCAUGUAAGGCAAAAAUAAGCUGUAGAAGGGUGAACACACAA [Default title] | 14.1 | 10.6
5 | AGAAGGUGGGUCGAGGAUAUCAGGCACGCCACAUGAGGAUCACCCAUGUUUUUGGCACCGCCCAAUGAGAAGGUGAACACCUUCA [Cesobe] | 12.4 | 9.34
6 | AAUAAACAUGAGGAUCACCCAUGUACCGACCACUAAGGAUAUGGGCGAAUAACAGCUCGGCCAGAAGGUAGAGGUG [Gebimarabi] | 62.5 | 46.7
7 | GGGAGACAUGAGGAUCACCCAUGUGAGAAGAGGCGAGGAUAUCGAAAAAAAAAAAAAAAACGAGAAGGCGCGAGAU [salish99-SS1-004] | 300 | 74.4
8 | AAAUAAAUAAGAGAGGAUAUGUCAGAGAAAACAUGAGGAUCACCCAUGUGAUAAUAAAAAGGGUGACAGAAGGCUCAAAACAAAC [Topaz 52] | 59.3 | 19.9
9 | AAAAAACAUGAGGAUCACCCAUGUAAAAAAAACACAGGAUAUCCCUUUUUUAAAUAAAAAGGAGAAGGGUGAAAAA [Nob's Hobby 8 - Jieux - Same State 1] | 30.9 | 24.1
10 | GGAUAACAUGAGGAUCACCCAUGUACAUGGGUACAAGGAUAUGUAAAAUAAAACAAACAAACAGAAGGUGUAAAAA [I'm in a state] | 163 | 228
11 | AAUAUAUUAAGUGAGGAUAUCGAAGAAAAAACAUGAGGAUCACCCAUGUGGGAAACCUGGUCGGGUGAGAAGGCACUUAAUAUAU [Samwise Clockwise 27 - Jieux - Same State 2] | 85.4 | 45.5
12 | AAAGACAUGGUGCAGGAUAUAUUAAUAGUCACAUGAGGAUCACCCAUGUUCAUUUAUAUGAACGAGUAGAAGGGCGAUGAAAAAA [SameState2 Malc#7] | 38.8 | 38.4
13 | UACAGACAUGAGGAUCACCCAUGUAGAAUUAUGGGAGGAUAUACAAAGACGAGAGUCAGAGUAGAAGGCCUAGGAA [salish99-ss1-164] | 64.6 | 24
14 | AAAAAACAUGAGGAUCACCCAUGUCGAAAGACGUGAGGAUAUGUACAGACUUCGGUCUGUACAGAAGGCACGUAAA [SS1 - 1040] | 33.8 | 14.3
15 | AGAAAUAAAAGAGAGGAUAUCCAAAAGGGAACAUGAGGAUCACCCAUGUAAAUGAAAAUAAAAUGGGAGAAGGCUCAAAAUAAAG [80% More Helter Skelter 2] | 85 | 54.6
16 | AAUAAUUAUAUGGAGGAUAUCCGUAAUAAGACAUGAGGAUCACCCAUGUAAUAAGGGUAAAUAAAGGAGAAGGCCAAGGGUGAAA [JR_SS002_Sub003] | 184 | 98.4
17 | AACUACAUUAUGAAGGAUAUCCGCGUCUAGACAUGAGGAUCACCCAUGUAUACUUGGAUCAUGCAGGAGAAGGUCAAGGGUGAUU [JR_SS002_Sub1209] | 122 | 178
18 | AGAAAACAUGAGGAUCACCCAUGUGAUAACAUGGGAGGAUAUACGAGGACGAGAGUCAAGGUAGAAGGCCUAAAGA [Garnet 72] | 114 | 111
19 | ACCCGACAUGAGGAUCACCCAUGUAAACAAUCAUGAGGAUAUCCGGAGCAAAUGCUCAAGGGAGAAGGCAUAAAAG [Onrequus] | 132 | 29.5
20 | AACAAACAUGAGGAUCACCCAUGUAAACAAACAUGAGGAUAUAUAACACAACAUCAACAGAUAGAAGGCAUAAAUA [JR_SS001_Sub1202] | 84.8 | 92.1
21 | AUAUGAGCUAUGGAGGAUAUCCAUAAUAAAACAUGAGGAUCACCCAUGUAAGAAAGAAAAGAAUGGGAGAAGGCCAUAGCUCAAU [SS 2 M44] | 13.1 | 11.6
22 | AGAAUAAAAAGACAGGAUAUCCAAAAUAAAACAUGAGGAUCACCCAUGUAAAAAAAAUAAAAAUGGGAGAAGGGUCAAAAUAAGA [Mat - Same State 2 - JL mod - D63] | 31.9 | 18.8

Row | Sequence | apparent KD of MS2 coat protein (MS2 coat protein [1]) [nM] | apparent KD of MS2 coat protein (MS2 coat protein [2]) [nM]
23 | AAAAAACAUGAGGAUCACCCAUGUGCAAAAUUCGCAGGAUAUUCCUUUUUUAAAUGGGAGGGAGAAGGGUGUAAAA [Nob's Hobby 19 - Jieux - Same State 1] | 34.5 | 21.9
24 | AAGACACAUGAGGAUCACCCAUGUCAAGAGAGAUGAGGAUAUCUGAGUUAGUUAAGUUAAGGAGAAGGCAUGAAAA [LROPPY Same State 1 - v01_deltaG=3.81] | 59.4 | 31
25 | UAAUAAUAAACCAAGGAUAUGGAGUUUCCAACAUGAGGAUCACCCAUGUUUAGCAUGAAAUCGAACCAGAAGGUGGAGCCAAAUA [JR_SS002_Sub1004] | 42.5 | 10.8
26 | GGGAGACAUGAGGAUCACCCAUGUGAAAACGUGUGAGGAUAUCUAUGGAAACCAUACUGUAGAGAAGGCACUUGUC [Servius Sulpicius Similis] | 125 | 45.4
27 | AGCCAACAUGAGGAUCACCCAUGUCAAACAAGUCAAGGAUAUGGGCCUCUAAAAGGAGUACCAGAAGGUGAGAAAU [Vequatge] | 52.6 | 123
28 | AACAAUCUAUCUGAGGAUAUCAUUAAAAAGACAUGAGGAUCACCCAUGUAGCAGGAAACUGCAUAUGAGAAGGCAGAUAGAUUGA [SS2: 1123] | 13.9 | 12.5
29 | GGUCGACAUGAGGAUCACCCAUGUAAGCCAAGGCAAGGAUAUGGGUAUAGGGUGCUAGGAUUAGAAGGUGCCAAAA [Soredige] | 82.8 | 87.1
30 | UUUAAUUAUACGAAGGAUAUCGAUAAUAAGACAUGAGGAUCACCCAUGUAAUAUUUUUCCAUAUUCGAGAAGGUCGCGGGUGAAC [JR_SS002_Sub601] | 16.9 | 25
31 | AGGAAACAUGAGGAUCACCCAUGUAAAAAUAUGGGAGGAUAUACAAAGACGAAAGUGAGAGUAGAAGGCCUAAAAG [Garnet 18] | 124 | 35.6
32 | GAAAAACAUGAGGAUCACCCAUGUGAAAAUAUGGGAGGAUAUACUAAGACGAAAGUCGAGGUAGAAGGCCUAAAAG [Same State 1.4h (Mat - Mod of Eli - )] | 131 | 24.7
33 | AGGAAACAUGAGGAUCACCCAUGUAAAGAAGGGUGAGGAUAUACAAAGAAAAGAAAGAAAGUAGAAGGCACAAAAG [Mongoose] | 113 | 233
34 | AGAGAUAACAGAGAGGAUAUCCAAUAGAAAACAUGAGGAUCACCCAUGUGAAAGAUAAUAAAAUGGGAGAAGGCUCACAAUAAGA [Topaz 42] | 39.8 | 15.8
35 | AAUAAACAUGAGGAUCACCCAUGUCUUUUACAUCAAGGAUAUGGGAUCGGAAAUCCGACACCAGAAGGUGAGUAGA [Userra] | 300 | 157
36 | AGGAAGGAGAGAGAGGAUAUCCAAAGGAAAACAUGAGGAUCACCCAUGUAGAAGGUAGGAAAUUGGGAGAAGGCUCAAGAGACAG [salish99-ss2-126] | 49.5 | 16.8
37 | AUAAAAUAAAGGGAGGAUAUCUAUAAUAAAACAUGAGGAUCACCCAUGUUAAAAAGAAGAUCAUGGGAGAAGGCCUAAAAUAAAU [SS2 M 30] | 46.1 | 37.9
38 | AAGAAACAUGAGGAUCACCCAUGUACCCAAAAGCGAGGAUAUGGGAAAGAAAGAAAGAAACCAGAAGGCGCAUGAA [Darius II] | 35.5 | 20
39 | AAAAAACAUGAGGAUCACCCAUGUCCUCGGACAUGAGGAUAUGUACAGACUUCGGUCUGUACAGAAGGCAUGUAAA [SS1 - 1018] | 684 | 901
40 | AAACCACAUGAGGAUCACCCAUGUAGAAAUAUGGGAGGAUAUACGAAGACGAAAGUCAAAGUAGAAGGCCUAAAAG [saturn 1] | 72.4 | 24.5
41 | CAGAGACAUGAGGAUCACCCAUGUAGGAUUAUGGGAGGAUAUACAAAGACGAGAGUCAGAGUAGAAGGCCUAGGAU [salish99-ss1-142] | 52.7 | 21.2
42 | GAAAAACAUGAGGAUCACCCAUGUGUAAAUAUGGAAGGAUAUACAAAGACGGAAGUCAAAGUAGAAGGUCUAAAAG [Mat - Same State 1 - Eli mod - D18] | 30.3 | 24.5
43 | AAAAAACAUGAGGAUCACCCAUGUAAAAAAAACACAGGAUAUCCCUUUUUUAAAUGGGAGGGAGAAGGGUGAAAAA [Nob's Hobby 12 - Jieux - Same State 1] | 29.3 | 17.4
